In article doi:10.1101/2025.09.11.675134, “Biodistribution-Driven Discovery Identifies a Glycosidase-Cleavable Linker to Reprogram Radiotheranostics” (bioRxiv, 2025):
Like-named read-outs stand apart in the source and are kept apart here.

Test: Ex vivo biodistribution of 225Ac-labeled variants in AR42J tumor-bearing mice
Conditions: athymic nu/nu, mouse, total radioactivity
Experimental: Prior to conducting targeted alpha-particle therapy studies using three ^225Ac-labeled variants (Fig. S17) in AR42J xenograft-bearing mice, we first assessed their in vivo pharmacokinetics through ex vivo biodistribution studies at 24 h post-injection (Fig. 5A; Tables S4). […]
For studies involving three variants (DOTA -TATE, DOTA-MVK(ε)-TATE, and DOTA-β-Gal-TATE), AR42J cells (5 × 10^6 cells per mouse) were subcutaneously inoculated into the right shoulder of the mice. Tumors were allowed to grow for 3 weeks, reaching a volume of 100 –200 mm³ before being used in subsequent experiments. […]
All samples […]
were weighed and counted on a gamma counter (2480 Wizard 3, Perkin Elmer Inc., Waltham, MA, USA). Results are presented as percentage of injected activity per gram (%IA/g) and mean values ± standard deviations. […]
Prior to conducting alpha particle therapy, biodistribution studies with 225Ac-labeled DOTA - TATE variants (117 – 163 kBq, 1 μg) were performed at 24 hours and 4 days post -injection in athymic nu/nu mice bearing AR42J tumors (n = 4 – 5). Mice were euthanized by CO 2 asphyxiation, and 10 tissues, including tumors, were collected. All samples were weighed and counted on a gamma counter after equilibration for 12 hours. Results are presented as %IA/g and mean values ± standard deviations.

[1] = iv, 1 ug, 225Ac-labeled, AR42J tumor-bearing mice, 24 h post-injection, ex vivo, mean (± SD), n = 4–5, read-out: Kidney uptake
[2] = iv, 1 ug, 225Ac-labeled, AR42J tumor-bearing mice, 24 h post-injection, ex vivo, mean (± SD), n = 4–5, read-out: Liver uptake
[3] = iv, 1 ug, 225Ac-labeled, AR42J tumor-bearing mice, 24 h post-injection, ex vivo, mean (± SD), n = 4–5, read-out: Tumor uptake
[4] = iv, 1 ug, 225Ac-labeled, AR42J tumor-bearing mice, 24 h post-injection, ex vivo, mean, n = 4–5, read-out: Femur uptake
[5] = iv, 1 ug, 225Ac-labeled, AR42J tumor-bearing mice, 24 h post-injection, ex vivo, mean, n = 4–5, read-out: Intestine uptake
[6] = iv, 1 ug, 225Ac-labeled, AR42J tumor-bearing mice, 24 h post-injection, ex vivo, mean, n = 4–5, read-out: Spleen uptake
[7] = iv, 1 ug, 225Ac-labeled, AR42J tumor-bearing mice, 24 h post-injection, i.v. 1 μg (117–163 kBq), ex vivo gamma counting, mean, n = 4–5, read-out: Blood uptake
[8] = iv, 1 ug, 225Ac-labeled, AR42J tumor-bearing mice, 4 days post-injection, ex vivo, mean, n = 4–5, read-out: Blood uptake
[9] = iv, 1 ug, 225Ac-labeled, AR42J tumor-bearing mice, 4 days post-injection, ex vivo, mean, n = 4–5, read-out: Femur uptake
[10] = iv, 1 ug, 225Ac-labeled, AR42J tumor-bearing mice, 4 days post-injection, ex vivo, mean, n = 4–5, read-out: Intestine uptake
[11] = iv, 1 ug, 225Ac-labeled, AR42J tumor-bearing mice, 4 days post-injection, ex vivo, mean, n = 4–5, read-out: Kidney uptake
[12] = iv, 1 ug, 225Ac-labeled, AR42J tumor-bearing mice, 4 days post-injection, ex vivo, mean, n = 4–5, read-out: Liver uptake
[13] = iv, 1 ug, 225Ac-labeled, AR42J tumor-bearing mice, 4 days post-injection, ex vivo, mean, n = 4–5, read-out: Muscle uptake
[14] = iv, 1 ug, 225Ac-labeled, AR42J tumor-bearing mice, 4 days post-injection, ex vivo, mean, n = 4–5, read-out: Spleen uptake
[15] = 225Ac-labeled, AR42J tumor-bearing mice, 24 h post-injection, ex vivo, mean, n = 4–5, read-out: Heart uptake
[16] = 225Ac-labeled, AR42J tumor-bearing mice, 24 h post-injection, ex vivo, mean, n = 4–5, read-out: Lung uptake
[17] = 225Ac-labeled, AR42J tumor-bearing mice, 24 h post-injection, ex vivo, mean, n = 4–5, read-out: Muscle uptake
[18] = 225Ac-labeled, AR42J tumor-bearing mice, 4 days post-injection, ex vivo, mean, n = 4–5, read-out: Heart uptake
[19] = 225Ac-labeled, AR42J tumor-bearing mice, 4 days post-injection, ex vivo, mean, n = 4–5, read-out: Lung uptake

Row | SMILES | tissue uptake at 24 h [1] [%ID/g] | tissue uptake at 24 h [2] [%ID/g] | tissue uptake at 24 h [3] [%ID/g] | tissue uptake at 24 h [4] [%ID/g] | tissue uptake at 24 h [5] [%ID/g] | tissue uptake at 24 h [6] [%ID/g] | tissue uptake at 24 h [7] [%ID/g] | tissue uptake at 96 h [8] [%ID/g] | tissue uptake at 96 h [9] [%ID/g] | tissue uptake at 96 h [10] [%ID/g] | tissue uptake at 96 h [11] [%ID/g] | tissue uptake at 96 h [12] [%ID/g] | tissue uptake at 96 h [13] [%ID/g] | tissue uptake at 96 h [14] [%ID/g] | tissue uptake at 96 h [%ID/g] | tissue uptake at 24 h [15] [%ID/g] | tissue uptake at 24 h [16] [%ID/g] | tissue uptake at 24 h [17] [%ID/g] | tissue uptake at 96 h [18] [%ID/g] | tissue uptake at 96 h [19] [%ID/g] | other results
1 | CSCC[C@H](NC(=O)CN1CCN(CC(=O)O)CCN(CC(=O)O)CCN(CC(=O)O)CC1)C(=O)N[C@H](C(=O)N[C@@H](CCCCNC(=O)CCCC(=O)N[C@H](Cc1ccccc1)C(=O)N[C@H]1CSSC[C@@H](C(=O)N[C@H](C(=O)O)[C@@H](C)O)NC(=O)[C@H]([C@@H](C)O)NC(=O)[C@H](CCCCN)NC(=O)[C@@H](Cc2c[nH]c3ccccc23)NC(=O)[C@H](Cc2ccc(O)cc2)NC1=O)C(=O)O)C(C)C [^225Ac-DOTA-MVK(ε)-TATE, metal not drawn] | 1.27 ± 0.25 | 0.61 ± 0.06 | 3.83 ± 0.51 | 0.33 | 0.11 | 0.32 | 0.03 | 0.03 | 0.32 | 0.07 | 0.43 | 0.42 | 0.15 | 0.19 | 2.41 ± 0.22 | 0.08 | 0.14 | 0.09 | 0.12 | 0.11 | tissue to tissue ratio at 24 h: 3.05 ± 0.37; tissue to tissue ratio at 96 h: 5.72 ± 0.91
2 | C[C@@H](O)[C@H](NC(=O)[C@@H]1CSSC[C@H](NC(=O)[C@@H](Cc2ccccc2)NC(=O)CN2CCN(CC(=O)O)CCN(CC(=O)O)CCN(CC(=O)O)CC2)C(=O)N[C@@H](Cc2ccc(O)cc2)C(=O)N[C@H](Cc2c[nH]c3ccccc23)C(=O)N[C@@H](CCCCN)C(=O)N[C@@H]([C@@H](C)O)C(=O)N1)C(=O)O [^225Ac-DOTA-TATE, metal not drawn, reference compound] | 4.19 ± 0.28 | 0.29 ± 0.02 | 3.4 ± 0.34 | 0.2 | 0.09 | 0.16 | 0.03 | 0.04 | 0.41 | 0.1 | 1.02 | 0.65 | 0.16 | 0.27 | 1.14 ± 0.37 | 0.06 | 0.14 | 0.1 | 0.14 | 0.16 | –
3 | C[C@@H](O)[C@H](NC(=O)[C@@H]1CSSC[C@H](NC(=O)[C@@H](Cc2ccccc2)NC(=O)CCCC(=O)Nc2cc(COC(=O)N(C)CCNC(=O)CN3CCN(CC(=O)O)CCN(CC(=O)O)CCN(CC(=O)O)CC3)ccc2O[C@@H]2O[C@H](CO)[C@H](O)[C@H](O)[C@H]2O)C(=O)N[C@@H](Cc2ccc(O)cc2)C(=O)N[C@H](Cc2c[nH]c3ccccc23)C(=O)N[C@@H](CCCCN)C(=O)N[C@@H]([C@@H](C)O)C(=O)N1)C(=O)O [^225Ac-DOTA-β-Gal-TATE, metal not drawn] | 0.89 ± 0.08 | 0.89 ± 0.49 | 8.22 ± 1.84 | 0.48 | 0.17 | 0.47 | 0.04 | 0.03 | 0.42 | 0.09 | 0.28 | 0.5 | 0.22 | 0.22 | – | 0.1 | 0.1 | 0.1 | 0.13 | 0.11 | tissue uptake at 96 h (225Ac-labeled, AR42J tumor-bearing mice, 4 days post-injection, ex vivo, mean (± SD), n = 4–5, read-out: Tumor uptake): 2.74 %ID/g; tissue to tissue ratio at 24 h (225Ac-labeled, AR42J xenografts, 24 h post-injection, ex vivo, mean ± SD, n = 4, read-out: Tumor-to-kidney (T/K) ratio): 9.12 ± 1.31
